Results published in PMC9352680, “A comprehensive thermodynamic model for RNA binding by the Saccharomyces cerevisiae Pumilio protein PUF4”.
Residue numbers refer to the chain shown, from its start. Names may count otherwise.

T1: PUF4 RNA-binding domain (Saccharomyces cerevisiae, UniProt P25339 537-888)
T1 sequence: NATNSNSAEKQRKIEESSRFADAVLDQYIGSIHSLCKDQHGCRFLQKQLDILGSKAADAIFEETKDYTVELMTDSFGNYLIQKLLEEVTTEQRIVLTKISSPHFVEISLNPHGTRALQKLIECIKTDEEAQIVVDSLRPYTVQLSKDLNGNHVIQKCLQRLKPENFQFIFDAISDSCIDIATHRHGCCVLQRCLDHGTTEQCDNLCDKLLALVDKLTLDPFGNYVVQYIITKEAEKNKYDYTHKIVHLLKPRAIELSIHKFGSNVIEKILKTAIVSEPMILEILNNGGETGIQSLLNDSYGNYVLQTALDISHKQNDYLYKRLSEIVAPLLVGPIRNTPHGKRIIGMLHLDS

B1: Id_iii_S2_P3E.5_K3.1_C3.3_[T-3A]_H3.1_A3.1_F3.1_T3.2 (ssRNA)
RNA: UUUGAUUAAUAUGAUAUCGUUCUUUCUACUUGUAUAUAUAUUCUUUCUCGAUAUCAUAUUAAUCUUU
B2: Id_iii_S2_P3E.5_K3.1_C3.3_[C-2T]_H3.1_A3.1_F3.1_T3.2 (ssRNA)
RNA: B1 RNA with A28U, C29U
B3: Id_iii_S2_P3E.5_K3.1_C3.3_[T-1A]_H3.1_A3.1_F3.1_T3.2 (ssRNA)
RNA: B1 RNA with A28U, U30A
B4: Id_iii_S2_P3E.5_K3.1_C3.3_H3.1_A3.1_F3.1_T3.2_[A10G] (ssRNA)
RNA: B1 RNA with A28U, A40G
B5: Id_iii_S2_P3E.5_K3.1_C3.3_[C-2G]_H3.1_A3.1_F3.1_T3.2 (ssRNA)
RNA: B1 RNA with A28U, C29G
B6: Id_iii_S2_P3E.5_K3.1_C3.3_H3.1_A3.1_F3.1_T3.2_[T9A] (ssRNA)
RNA: B1 RNA with A28U, U39A

target: T1, PUF4 RNA-binding domain; test: Mg; RNA-MaP; 20 mM Na-HEPES pH 7.4, 30 mM KOAc, 0.75 mM MgCl2, 0.1% Tween-20, 5% glycerol, 0.1 mg/mL BSA, 2 mM DTT; 25 C; 0.0125-409.6 nM protein; details: tags: N-His6-TEV cleaved; C-SNAP kept, Cy3B-labelled; label: tethered on chip by stalled RNA polymerase

Binder | Kd [nM]
UCUCUUUGUGUUUUUAUCUCUU (ssRNA) [Ib_S1_P5E.1_K5.1_C5.1_H5.1_[A4G]_A5.1_[A7T]_F5.1_T5.1] | 26.8
UCUCUUUGUUGUAUUUAAGUUCUCUU (ssRNA) [Id_iii_S1_P4E.9_K4.5_C4.3_[C-2G]_H4.1_A4.2_F4.2_T4.2] | 155
UCUCUUUGUAUUUUUAUCUCUU (ssRNA) [Ia_S1_P5E.1_K5.1_C5.1_H5.1_A5.1_[A7T]_F5.1_T5.1] | 3.57
UCUCUUACUACACUUAUUAUAUCUCUU (ssRNA) [Id_iii_S1_P5E.7_K5.3_C5.3_[T-3A]_H5.3_A5.1_F5.1_T5.2] | 1570
UCUCUUUGUACACUUAUUAUAUCUCUU (ssRNA) [Id_iii_S1_P5E.7_K5.3_C5.3_[C-2G]_H5.3_A5.1_F5.1_T5.2] | 3.9
UCUCUUUGUUGUAUUUUAGUUCUCUU (ssRNA) [Id_iii_S1_P4E.8_K4.4_C4.3_[C-2G]_H4.1_A4.2_F4.1_T4.2] | 2.23
UCUCUUUCUUGUAUUAUUAUGUCUCUU (ssRNA) [Id_iii_S1_P5E.5_K5.1_C5.3_H5.1_A5.1_F5.1_T5.2_[A12G]] | 8.55
UCUCUUUCUUGUAUUUUAAUUCUCUU (ssRNA) [Id_iii_S1_P4E.8_K4.4_C4.3_H4.1_A4.2_F4.1_T4.2_[G10A]] | 3.62
UCUCUUUCUUGUAUUUAACUUCUCUU (ssRNA) [Id_iii_S1_P4E.9_K4.5_C4.3_H4.1_A4.2_F4.2_T4.2_[G10C]] | 70.1
UCUCUUUCUUGUAUUUUAGCUCUCUU (ssRNA) [Id_iii_S1_P4E.8_K4.4_C4.3_H4.1_A4.2_F4.1_T4.2_[T11C]] | 1.07
UCUCUUUCUUGUAAUAUUAAAUCUCUU (ssRNA) [Id_iii_S1_P5E.8_K5.4_C5.3_H5.1_A5.2_F5.1_T5.2_[T11A]] | 11.3
UCUCUUUCUUGUAAUAUUAUUUCUCUU (ssRNA) [Id_iii_S1_P5E.8_K5.4_C5.3_H5.1_A5.2_F5.1_T5.2_[A12T]] | 7.29
UCUCUUUUUUGUAUUUUAGUUCUCUU (ssRNA) [Id_iii_S1_P4E.8_K4.4_C4.3_[C-2T]_H4.1_A4.2_F4.1_T4.2] | 1.81
UCUCUUUCUACACUAUUACUUCUCUU (ssRNA) [Id_iii_S1_P4E.7_K4.3_C4.3_H4.3_A4.1_F4.1_T4.2_[G10C]] | 2190
UCUCUUUCUUGUAAUAUUAUGUCUCUU (ssRNA) [Id_iii_S1_P5E.8_K5.4_C5.3_H5.1_A5.2_F5.1_T5.2_[A12G]] | 10
UCUCUUUCUUGUAAUAAAAUCUCUCUU (ssRNA) [Id_iii_S1_P5E.9_K5.5_C5.3_H5.1_A5.2_F5.2_T5.2_[A12C]] | 411
UCUCUUUAUACACUAUUAGUUCUCUU (ssRNA) [Id_iii_S1_P4E.7_K4.3_C4.3_[C-2A]_H4.3_A4.1_F4.1_T4.2] | 39.2
UCUCUUUCUUGUAUUUAAAUUCUCUU (ssRNA) [Id_iii_S1_P4E.9_K4.5_C4.3_H4.1_A4.2_F4.2_T4.2_[G10A]] | 96.9
UCUCUUUCUUGUAUUUUAUUUCUCUU (ssRNA) [Id_iii_S1_P4E.8_K4.4_C4.3_H4.1_A4.2_F4.1_T4.2_[G10T]] | 2.43
UCUCUUUCCUGUAAUAUUAUAUCUCUU (ssRNA) [Id_iii_S1_P5E.8_K5.4_C5.3_[T-1C]_H5.1_A5.2_F5.1_T5.2] | 7.32
B1 | 1.18

Binder | Kd [nM]
B2 | 1.52
B3 | 1.7
B4 | 2.21
B5 | 2.14
B6 | 3.53
UCUCUUUCUUAUAUAUUAGCUCUCUU (ssRNA) [Id_iii_S1_P4E.6_K4.2_C4.3_H4.2_A4.1_F4.1_T4.2_[T11C]] | 8.45
UCUCUUUCCUGUAUUUAAGUUCUCUU (ssRNA) [Id_iii_S1_P4E.9_K4.5_C4.3_[T-1C]_H4.1_A4.2_F4.2_T4.2] | 460
UCUCUUUCCACACUUAUUAUAUCUCUU (ssRNA) [Id_iii_S1_P5E.7_K5.3_C5.3_[T-1C]_H5.3_A5.1_F5.1_T5.2] | > 2300
UCUCUUUCUUAUAUAUUAAUUCUCUU (ssRNA) [Id_iii_S1_P4E.6_K4.2_C4.3_H4.2_A4.1_F4.1_T4.2_[G10A]] | 18.1
UCUCUUUGUUUAAUUAUCUCUU (ssRNA) [Ib_S1_P5E.1_K5.1_C5.1_H5.1_[A4T]_A5.1_[T6A]_F5.1_T5.1] | 44.6
UCUCUUUCUUAUAUUAUUAAAUCUCUU (ssRNA) [Id_iii_S1_P5E.6_K5.2_C5.3_H5.2_A5.1_F5.1_T5.2_[T11A]] | 551
UCUCUUCCUUGUAAUAUUAUAUCUCUU (ssRNA) [Id_iii_S1_P5E.8_K5.4_C5.3_[T-3C]_H5.1_A5.2_F5.1_T5.2] | 8.43
UCUCUUUCUACACUUAUUAUGUCUCUU (ssRNA) [Id_iii_S1_P5E.7_K5.3_C5.3_H5.3_A5.1_F5.1_T5.2_[A12G]] | > 2300
UCUCUUUCUACACUAUUAUUUCUCUU (ssRNA) [Id_iii_S1_P4E.7_K4.3_C4.3_H4.3_A4.1_F4.1_T4.2_[G10T]] | > 2300
UCUCUUUCUUGUAUUAUUAUUUCUCUU (ssRNA) [Id_iii_S1_P5E.5_K5.1_C5.3_H5.1_A5.1_F5.1_T5.2_[A12T]] | 4.34
UCUCUUUGUCUUCUUAUCUCUU (ssRNA) [Ib_S1_P5E.1_K5.1_C5.1_H5.1_[A4C]_A5.1_[A7C]_F5.1_T5.1] | 1090
UCUCUUUCUUGUAUUAUUAAAUCUCUU (ssRNA) [Id_iii_S1_P5E.5_K5.1_C5.3_H5.1_A5.1_F5.1_T5.2_[T11A]] | 11.1
UCUCUUUCUUAUAUUAUUAUCUCUCUU (ssRNA) [Id_iii_S1_P5E.6_K5.2_C5.3_H5.2_A5.1_F5.1_T5.2_[A12C]] | 471
UCUCUUUGUUUCAUUAUCUCUU (ssRNA) [Ib_S1_P5E.1_K5.1_C5.1_H5.1_[A4T]_A5.1_[T6C]_F5.1_T5.1] | 24.4
UCUCUUCCUACACUUAUUAUAUCUCUU (ssRNA) [Id_iii_S1_P5E.7_K5.3_C5.3_[T-3C]_H5.3_A5.1_F5.1_T5.2] | > 2300
UCUCUUUCAUGUAUUUAAGUUCUCUU (ssRNA) [Id_iii_S1_P4E.9_K4.5_C4.3_[T-1A]_H4.1_A4.2_F4.2_T4.2] | 648

Binder | Kd [nM]
UCUCUUUCUACACUUAUUACAUCUCUU (ssRNA) [Id_iii_S1_P5E.7_K5.3_C5.3_H5.3_A5.1_F5.1_T5.2_[T11C]] | > 2300
UCUCUUUCGUGUAUUUUAGUUCUCUU (ssRNA) [Id_iii_S1_P4E.8_K4.4_C4.3_[T-1G]_H4.1_A4.2_F4.1_T4.2] | 1.23
UCUCUUUUUUGUAUUUAAGUUCUCUU (ssRNA) [Id_iii_S1_P4E.9_K4.5_C4.3_[C-2T]_H4.1_A4.2_F4.2_T4.2] | 618
UCUCUUUUUACACUAUUAGUUCUCUU (ssRNA) [Id_iii_S1_P4E.7_K4.3_C4.3_[C-2T]_H4.3_A4.1_F4.1_T4.2] | 1680
UCUCUUUCUUAUAUUAUUAUUUCUCUU (ssRNA) [Id_iii_S1_P5E.6_K5.2_C5.3_H5.2_A5.1_F5.1_T5.2_[A12T]] | 372
UCUCUUUCUACACUAUUAAUUCUCUU (ssRNA) [Id_iii_S1_P4E.7_K4.3_C4.3_H4.3_A4.1_F4.1_T4.2_[G10A]] | > 2300
UCUCUUUGUACACUAUUAGUUCUCUU (ssRNA) [Id_iii_S1_P4E.7_K4.3_C4.3_[C-2G]_H4.3_A4.1_F4.1_T4.2] | 1.04
UCUCUUUAUUGUAAUAUUAUAUCUCUU (ssRNA) [Id_iii_S1_P5E.8_K5.4_C5.3_[C-2A]_H5.1_A5.2_F5.1_T5.2] | 9.11
UCUCUUUAUACACUUAUUAUAUCUCUU (ssRNA) [Id_iii_S1_P5E.7_K5.3_C5.3_[C-2A]_H5.3_A5.1_F5.1_T5.2] | 720
UCUCUUUGUCUUGUUAUCUCUU (ssRNA) [Ib_S1_P5E.1_K5.1_C5.1_H5.1_[A4C]_A5.1_[A7G]_F5.1_T5.1] | 475
UCUCUUUCGUGUAUUUAAGUUCUCUU (ssRNA) [Id_iii_S1_P4E.9_K4.5_C4.3_[T-1G]_H4.1_A4.2_F4.2_T4.2] | 694
UCUCUUACUUGUAAUAUUAUAUCUCUU (ssRNA) [Id_iii_S1_P5E.8_K5.4_C5.3_[T-3A]_H5.1_A5.2_F5.1_T5.2] | 13.7
UCUCUUUCUACACUUAUUAUUUCUCUU (ssRNA) [Id_iii_S1_P5E.7_K5.3_C5.3_H5.3_A5.1_F5.1_T5.2_[A12T]] | > 2300
UCUCUUUCUUAUAUUAUUACAUCUCUU (ssRNA) [Id_iii_S1_P5E.6_K5.2_C5.3_H5.2_A5.1_F5.1_T5.2_[T11C]] | 450
UCUCUUUCAUGUAUUUUAGUUCUCUU (ssRNA) [Id_iii_S1_P4E.8_K4.4_C4.3_[T-1A]_H4.1_A4.2_F4.1_T4.2] | 1.37
UCUCUUUCUUGUAUUAUUAUCUCUCUU (ssRNA) [Id_iii_S1_P5E.5_K5.1_C5.3_H5.1_A5.1_F5.1_T5.2_[A12C]] | 6
UCUCUUUGUUUGAUUAUCUCUU (ssRNA) [Ib_S1_P5E.1_K5.1_C5.1_H5.1_[A4T]_A5.1_[T6G]_F5.1_T5.1] | 122
UCUCUUUCUUGUAAUAAAAAAUCUCUU (ssRNA) [Id_iii_S1_P5E.9_K5.5_C5.3_H5.1_A5.2_F5.2_T5.2_[T11A]] | 412
UCUCUUUCUUGUAAUAUUAUCUCUCUU (ssRNA) [Id_iii_S1_P5E.8_K5.4_C5.3_H5.1_A5.2_F5.1_T5.2_[A12C]] | 6.29
